The target in this assay is GST-QM fusion protein, full-length QM (human) (UniProt P27635). The assay is described as follows: pull-down.

“normal full-length PS1, in vitro translated and radiolabeled with [35S]methionine (from UniProt P49768 1-467) (natural protein)”: the ratio between the input and the pulled-down amounts stood at 95%.
